US20220033784A1 (priority 2020, published 2022)
Like-named read-outs stand apart in the source and are kept apart here.

T1: human intermediate-affinity IL-2 receptor complex, IL-2 CD122/CD132 (β/γ), on cells (human, UniProt P14784 27-551; P31785 23-369)
T1 sequence (looked up) 1: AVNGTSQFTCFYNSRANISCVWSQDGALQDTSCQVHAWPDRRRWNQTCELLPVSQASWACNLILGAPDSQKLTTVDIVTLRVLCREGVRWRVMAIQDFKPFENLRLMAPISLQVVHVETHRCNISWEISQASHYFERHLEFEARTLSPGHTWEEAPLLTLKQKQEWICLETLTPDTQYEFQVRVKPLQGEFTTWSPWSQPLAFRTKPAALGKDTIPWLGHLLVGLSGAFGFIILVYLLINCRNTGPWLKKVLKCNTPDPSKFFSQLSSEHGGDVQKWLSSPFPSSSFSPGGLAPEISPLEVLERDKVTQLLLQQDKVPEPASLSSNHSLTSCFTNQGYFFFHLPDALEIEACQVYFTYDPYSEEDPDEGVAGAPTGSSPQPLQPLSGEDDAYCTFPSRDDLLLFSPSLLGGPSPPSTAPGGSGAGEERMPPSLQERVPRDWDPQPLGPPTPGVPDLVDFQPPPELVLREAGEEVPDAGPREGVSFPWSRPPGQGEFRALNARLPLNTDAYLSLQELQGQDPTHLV
T1 sequence (looked up) 2: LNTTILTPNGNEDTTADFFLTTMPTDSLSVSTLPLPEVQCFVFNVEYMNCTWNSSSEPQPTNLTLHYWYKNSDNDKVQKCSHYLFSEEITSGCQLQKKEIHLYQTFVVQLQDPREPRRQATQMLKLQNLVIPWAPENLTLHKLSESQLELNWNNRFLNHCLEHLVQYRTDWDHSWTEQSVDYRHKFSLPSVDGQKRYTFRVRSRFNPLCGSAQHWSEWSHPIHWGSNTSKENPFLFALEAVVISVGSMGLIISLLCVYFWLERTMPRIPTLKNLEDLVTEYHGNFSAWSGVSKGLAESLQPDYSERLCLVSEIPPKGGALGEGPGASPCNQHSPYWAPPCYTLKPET

T2: human high-affinity IL-2 receptor complex, IL-2 CD25/CD122/CD132 (α/β/γ), on cells (human, UniProt P01589 22-272; P14784 27-551; P31785 23-369)
T2 sequence (looked up) 1: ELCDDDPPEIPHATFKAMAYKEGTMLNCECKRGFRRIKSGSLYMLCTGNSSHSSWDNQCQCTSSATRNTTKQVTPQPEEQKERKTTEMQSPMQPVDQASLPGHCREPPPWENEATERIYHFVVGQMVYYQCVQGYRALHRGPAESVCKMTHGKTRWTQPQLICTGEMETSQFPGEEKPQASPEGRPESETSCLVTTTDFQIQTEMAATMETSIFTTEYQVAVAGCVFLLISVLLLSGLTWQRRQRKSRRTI
T2 sequence (looked up) 2: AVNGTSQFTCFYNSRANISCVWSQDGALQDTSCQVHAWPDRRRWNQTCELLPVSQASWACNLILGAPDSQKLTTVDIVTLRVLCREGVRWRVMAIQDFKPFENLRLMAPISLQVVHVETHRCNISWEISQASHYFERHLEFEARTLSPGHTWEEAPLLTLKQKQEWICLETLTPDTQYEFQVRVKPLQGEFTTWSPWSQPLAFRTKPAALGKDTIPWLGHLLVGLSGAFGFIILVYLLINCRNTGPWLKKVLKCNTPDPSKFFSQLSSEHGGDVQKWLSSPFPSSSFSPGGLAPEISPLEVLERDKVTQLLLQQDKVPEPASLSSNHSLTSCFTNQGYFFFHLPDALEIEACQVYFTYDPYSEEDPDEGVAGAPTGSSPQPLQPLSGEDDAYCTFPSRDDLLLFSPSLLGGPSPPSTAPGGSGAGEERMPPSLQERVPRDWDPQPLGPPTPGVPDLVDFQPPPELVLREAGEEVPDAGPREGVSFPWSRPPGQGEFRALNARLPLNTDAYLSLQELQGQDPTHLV
T2 sequence (looked up) 3: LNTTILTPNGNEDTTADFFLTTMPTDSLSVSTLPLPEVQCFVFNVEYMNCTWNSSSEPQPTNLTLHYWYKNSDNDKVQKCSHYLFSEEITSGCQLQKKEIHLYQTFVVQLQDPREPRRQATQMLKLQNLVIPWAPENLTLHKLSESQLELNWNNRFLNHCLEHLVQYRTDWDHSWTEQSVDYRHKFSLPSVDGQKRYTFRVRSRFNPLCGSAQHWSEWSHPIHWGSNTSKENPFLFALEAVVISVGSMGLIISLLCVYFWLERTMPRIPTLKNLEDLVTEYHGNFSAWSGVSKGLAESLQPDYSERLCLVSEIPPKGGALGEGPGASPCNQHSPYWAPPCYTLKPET

T3: human IL-2 receptor beta (IL-2Rβ, CD122), purified soluble (human, UniProt P14784 27-240)
T3 construct: also called hILR2β (CD122); human IL-2Rβ
T3 sequence (looked up): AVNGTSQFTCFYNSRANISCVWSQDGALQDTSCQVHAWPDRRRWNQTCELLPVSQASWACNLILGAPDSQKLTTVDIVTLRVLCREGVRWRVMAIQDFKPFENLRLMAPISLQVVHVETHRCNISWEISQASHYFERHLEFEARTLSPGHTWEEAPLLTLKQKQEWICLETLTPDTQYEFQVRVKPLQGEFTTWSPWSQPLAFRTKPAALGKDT


Legend:
[1] = test system: HH cells (IL-2 CD122/CD132 (β/γ) receptor complex); test: pSTAT5 ELISA in HH cells; type: cell-based
Experimental: (§1) The ability of the IL-2 variants to activate HH cells and iTregs was measured by monitoring relative changes in phosphorylated STAT5 (pSTAT5) in response to treatment of the cells with the IL-2 variants. pSTAT5 is known to be a downstream consequence of IL-2 signaling. HH T cells (ATCC CRL-2105) are a line of T cells that lack the alpha chain of the IL-2 receptor complex, but that contain the beta and gamma chains of the IL-2 receptor complex. iTreg cells were prepared from Fresh Leuko Paks obtained from […] Technologies (CAT #70500.1, Donor #D001003551).
(§2) For IL-2 activation, the HH cells and iTreg cells were plated at 2*10e6 cells/well in 50 ul serum-free RPMI 1640 media (Gibco), and allowed to rest at 37° C. After resting, cells were treated the IL-2 molecules listed above, and cells were then pelleted by centrifugation.
(§3) Following treatment with the IL-2 molecules, cell induction status was evaluated by the InstantOne ELISA pSTAT5 detection kit (Invitrogen).

[2] = test system: iTreg cells (IL-2 CD25/CD122/CD132 (α/β/γ) receptor complex); test: pSTAT5 ELISA in iTreg cells; type: cell-based; conditions: pSTAT5 level 50% of maximum, InstantOne ELISA; read-out: EC50 iTreg cell
Experimental: as §1, §2, §3

[3] = biological target: T1, human intermediate-affinity IL-2 …; test: cell-based or functional assay
[4] = biological target: T2, human high-affinity IL-2 receptor …; test: cell-based or functional assay
[5] = biological target: T1, human intermediate-affinity IL-2 …; test: cell-based or functional assay; remark: listed apart in the source
[6] = biological target: T2, human high-affinity IL-2 receptor …; test: cell-based or functional assay; remark: listed apart in the source
[7] = biological target: T1, human intermediate-affinity IL-2 …; test: cell-based or functional assay; remark: listed apart in the source
[8] = biological target: T3, human IL-2 receptor beta (IL-2Rβ, …); test: SPR (Biacore 8K, 25 C), CD122 amine-coupled on CM5 chip, Fc-IL2 variant as analyte, 1:1 Langmuir fit

Row | Molecule | EC50, pSTAT5 induction in HH T cells (ELISA) [3] | EC50, pSTAT5 induction in iTreg cells (ELISA) [4] | EC50 (read off the curve), pSTAT5 MFI in NK cells of hPBMC [5] | EC50 (read off the curve), pSTAT5 MFI in Treg cells of hPBMC [6] | EC50 (read off the curve), pSTAT5 MFI in NK cells of hPBMC [7] | Kd [8] | koff [8] | kon [8] | other results
1 | Fc-IL2-K43N:Y45T-E62N:K64T (protein) APTSSSTKKTQLQLEHLLLDLQMILNGINNYKNPKLTRMLTFNFTMPKKATELKHLQCLEENLTPLEEVLNLAQSKNFHLRPRDLISNINVIVLELKGSETTFMCEYADETATIVEFLNRWITFCQSIISTLT |  |  |  |  |  |  |  |  | relative selectivity for HH cells vs iTreg cells among the tested molecules ([1]; Table C): greatest relative selectivity; Selectivity HH/iTreg ([1]; higher value = greater selectivity for HH cells): 4.64 × 10^−2; EC50 ([1]; pSTAT5 level 50% of maximum, InstantOne ELISA, read-out: EC50 HH T cell): 66.2 nM; EC50 [2]: 3.07 nM
2 | Fc-IL2-R38N:L40T-K43N:Y45T (Fc fusion) GGGGSGGGGSAPTSSSTKKTQLQLEHLLLDLQMILNGINNYKNPKLTNMTTFNFTMPKKATELKHLQCLEEELKPLEEVLNLAQSKNFHLRPRDLISNINVIVLELKGSETTFMCEYADETATIVEFLNRWITFCQSIISTLT | 218 nM | 14.1 nM | ~8 nM | ~20 nM | ~8 nM | 3.54 µM | 0.292 s⁻¹ | 82600 M⁻¹ s⁻¹ | 
3 | Fc-IL2-K43N:Y45T-E62N:K64T (Fc fusion) GGGGSGGGGSAPTSSSTKKTQLQLEHLLLDLQMILNGINNYKNPKLTRMLTFNFTMPKKATELKHLQCLEENLTPLEEVLNLAQSKNFHLRPRDLISNINVIVLELKGSETTFMCEYADETATIVEFLNRWITFCQSIISTLT | 66.2 nM | 3.07 nM |  |  | ~6 nM |  |  |  | 
4 | Fc-IL2-K43N:Y45T-L72N:Q74T (Fc fusion) GGGGSGGGGSAPTSSSTKKTQLQLEHLLLDLQMILNGINNYKNPKLTRMLTFNFTMPKKATELKHLQCLEEELKPLEEVLNNATSKNFHLRPRDLISNINVIVLELKGSETTFMCEYADETATIVEFLNRWITFCQSIISTLT | 65.2 nM | 4.49 nM |  |  | ~6 nM | 2.62 µM | 0.235 s⁻¹ | 89900 M⁻¹ s⁻¹ | 
5 | Fc-IL2-R38N:L40T-E62N:K64T (Fc fusion) GGGGSGGGGSAPTSSSTKKTQLQLEHLLLDLQMILNGINNYKNPKLTNMTTFKFYMPKKATELKHLQCLEENLTPLEEVLNLAQSKNFHLRPRDLISNINVIVLELKGSETTFMCEYADETATIVEFLNRWITFCQSIISTLT |  |  | ~6 nM | ~20 nM |  |  |  |  | 
6 | Fc-IL2-R38N:L40T-L72N:Q74T (Fc fusion) GGGGSGGGGSAPTSSSTKKTQLQLEHLLLDLQMILNGINNYKNPKLTNMTTFKFYMPKKATELKHLQCLEEELKPLEEVLNNATSKNFHLRPRDLISNINVIVLELKGSETTFMCEYADETATIVEFLNRWITFCQSIISTLT |  |  | ~6 nM | ~20 nM |  |  |  |  | 
